Experimental data from patent US20160264664A1 (Ablynx, published 2016).
Residue numbers refer to the chain shown, from its start.

Columns and labels:
mouse P2X7 [1] = molecular target: T1, mouse P2X7 (mouse, UniProt Q9Z1M0 1-595); assay: phage ELISA, mP2X7-CHO vs control CHO cells
T1 construct: on transfected CHO or Hek293 cells, or endogenous on Yac-1 cells; also called mP2X7; mouse purinoceptor P2X7
T1 sequence: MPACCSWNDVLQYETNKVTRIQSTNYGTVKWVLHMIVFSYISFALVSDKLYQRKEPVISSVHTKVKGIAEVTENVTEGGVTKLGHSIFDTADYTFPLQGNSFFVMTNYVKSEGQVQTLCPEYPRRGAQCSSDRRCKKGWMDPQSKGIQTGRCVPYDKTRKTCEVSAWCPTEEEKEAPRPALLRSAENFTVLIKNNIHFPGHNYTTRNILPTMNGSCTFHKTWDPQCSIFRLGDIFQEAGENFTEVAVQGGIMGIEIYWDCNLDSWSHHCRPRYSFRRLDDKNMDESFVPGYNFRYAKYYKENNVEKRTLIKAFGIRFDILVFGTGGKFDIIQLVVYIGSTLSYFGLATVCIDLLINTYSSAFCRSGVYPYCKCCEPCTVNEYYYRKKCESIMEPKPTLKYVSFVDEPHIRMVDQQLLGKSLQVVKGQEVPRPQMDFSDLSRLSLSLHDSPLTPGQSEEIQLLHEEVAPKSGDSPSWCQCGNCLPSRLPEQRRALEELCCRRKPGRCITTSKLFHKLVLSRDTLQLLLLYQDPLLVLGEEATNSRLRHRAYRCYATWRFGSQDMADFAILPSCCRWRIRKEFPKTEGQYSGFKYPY
Description: (§1) Sub-confluent cells were rinsed with PBS and fixed using 4% paraformaldehyde in PBS for 10 minutes at RT. Fixed cells were washed three times with PBS, and blocked with 2% BSA in PBS for 2 hours. Following blocking, 10-fold diluted culture supernatant containing phage was added and incubated for 1 hour. Cell-bound phage was detected via mouse anti-M13-HRP-conjugate (GE Healthcare, Cat nr. E2886). Rat mAb Hano43 was used as positive control.

mouse P2X7 [2] = molecular target: T1, mouse P2X7; assay: flow cytometry, periplasmic extract pre-incubated with anti-myc-FITC, on mP2X7-Hek293 cells;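 further: periplasmic extract diluted 10-fold and premixed 45 min at 4 °C with FITC anti-myc antibody, giving pseudo-bivalent Nanobodies, before binding to the cells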
Description: Ten-fold diluted PE were pre-incubation with 0.5 μg anti-myc FITC-conjugated antibodies (AbD Serotec, cat no. MCA2200F) (creating pseudo-bivalent Nanobodies in order to increase binding strength) in 0.1 ml PBS/10% FCS for 45 minutes at 4° C. […] Alternatively, sequential staining of 10-fold diluted PE with anti-myc FITC-conjugated antibodies was done after incubation with the cells.

mouse P2X7 [3] = molecular target: T1, mouse P2X7; assay: cell-based or functional assay
human P2X7 = molecular target: T2, human P2X7 (human, UniProt Q99572 1-595); assay: flow cytometry, Nanobody pre-incubated with anti-Myc-FITC
T2 construct: on transfected Hek293 cells; also called hP2X7
T2 sequence: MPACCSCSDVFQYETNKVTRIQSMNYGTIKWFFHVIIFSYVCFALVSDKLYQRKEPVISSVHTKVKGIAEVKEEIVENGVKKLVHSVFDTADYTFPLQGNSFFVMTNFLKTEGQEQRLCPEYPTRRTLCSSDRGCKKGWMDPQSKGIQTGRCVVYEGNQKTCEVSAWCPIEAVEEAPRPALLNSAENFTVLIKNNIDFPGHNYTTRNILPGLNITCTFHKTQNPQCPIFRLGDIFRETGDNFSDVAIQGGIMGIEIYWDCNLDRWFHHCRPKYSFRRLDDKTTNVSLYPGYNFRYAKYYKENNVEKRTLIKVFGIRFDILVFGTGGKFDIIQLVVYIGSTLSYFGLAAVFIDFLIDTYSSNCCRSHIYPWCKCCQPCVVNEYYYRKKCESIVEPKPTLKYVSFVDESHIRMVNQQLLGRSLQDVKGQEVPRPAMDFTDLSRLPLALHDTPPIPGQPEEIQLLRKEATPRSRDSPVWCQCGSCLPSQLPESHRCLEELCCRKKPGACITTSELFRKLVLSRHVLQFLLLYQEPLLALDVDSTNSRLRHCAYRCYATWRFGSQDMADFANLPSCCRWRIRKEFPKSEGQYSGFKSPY

human P2X4 = molecular target: T3, human P2X4 (human, UniProt Q99571 1-388); assay: as above
T3 construct: whole, on cells; also called hP2X4
T3 sequence (looked up): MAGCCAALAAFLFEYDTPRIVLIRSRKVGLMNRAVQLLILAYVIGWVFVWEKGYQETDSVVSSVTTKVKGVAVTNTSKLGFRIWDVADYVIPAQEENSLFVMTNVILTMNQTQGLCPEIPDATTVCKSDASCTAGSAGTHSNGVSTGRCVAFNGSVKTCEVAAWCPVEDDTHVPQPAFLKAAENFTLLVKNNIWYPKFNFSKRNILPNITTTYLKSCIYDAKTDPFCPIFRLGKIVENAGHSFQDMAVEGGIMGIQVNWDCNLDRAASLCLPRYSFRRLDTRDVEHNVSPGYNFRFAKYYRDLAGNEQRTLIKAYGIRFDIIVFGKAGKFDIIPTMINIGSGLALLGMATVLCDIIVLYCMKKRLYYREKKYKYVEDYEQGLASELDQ

mouse P2X7 [4] = molecular target: T1, mouse P2X7; assay: phage ELISA on fixed mP2X7-CHO vs untransfected CHO cells;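 further: phage culture supernatant diluted 10-fold, applied for 1 h to paraformaldehyde-fixed, BSA-blocked cells in 96-well plates, with bound phage read via HRP-linked anti-M13 antibody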
Description: as §1

B1: P2X7PMP1C9 (VHH)
VHH: EVQLVESGGGLVQTGGSLRLSCAASGFTLDDYAIAWFRQAPGKEREGVSILSSIGKTFYADSVKDRFSITADGAKTTVFLQMNSLKPEDTAIYYCVAGHFVYNDGAISLNTARGSGFWGQGAQVTVSS
notes: family 2; on phage or c-myc/His6-tagged in assays
absorption ratio (ELISA) (mouse P2X7 [1]): 6 ratio | MFI FACS (pre-Myc incubation) (mouse P2X7 [2]): 19 MFI

B2: P2X7PMP20B10 (VHH)
VHH: B1 VHH with A122T
notes: as for B1
absorption ratio (ELISA) (mouse P2X7 [1]): 8 ratio | MFI FACS (pre-Myc incubation) (mouse P2X7 [2]): 85 MFI

B3: P2X7PMP13B5 (VHH)
VHH: EVQLVESGGGLVQAGDSLRLSCAASGRTFSSYAMGWFRQAPGKEREFVAAISLSGSMTYYADSMKGRFTISRDNAKNTVYLQMNSLKPEDTAVYYCAAEELGDGLGYLAYRYDYWGQGTQVTVSS
notes: family 19; on phage or c-myc/His6-tagged in assays
ATP IC50 by 2 uM NB (head prints 'mM'; ligand titration at fixed Nanobody, CD62L shedding, Yac-1 cells) (mouse P2X7 [3]): 0.2 mM | IC50 (nM) against 20 uM NAD (CD62L shedding, Yac-1 cells) (mouse P2X7 [3]): 3650 nM | IC50 (nM) against 100 uM ATP (CD62L shedding, Yac-1 cells) (mouse P2X7 [3]): 436 nM | binding result (human P2X7): no binding (tested: 147 nM) | binding result (human P2X4): no binding (tested: 147 nM) | Fold Cho P2X7/wt (phage ELISA) (mouse P2X7 [4]): 28 fold

B4: P2X7PMP8C7 (VHH)
VHH: EMQLVESGGGLVQAGGSLRLSCAASGRTFSSLAMGWLRQAPGKEREFVSGISRGGTSTYYADSVKGRFTISRDNAKNTMYLQMNSLKPEDTAVYYCAGSPVLSIVLDTRGLEYWGQGTQVTVSS
notes: family 7; on phage or c-myc/His6-tagged in assays
IC50 (nM) against 20 uM NAD (CD62L shedding, Yac-1 cells) (mouse P2X7 [3]): 4000 nM | IC50 (nM) against 100 uM ATP (CD62L shedding, Yac-1 cells) (mouse P2X7 [3]): 386 nM | binding result (human P2X7): no binding (tested: 147 nM) | binding result (human P2X4): no binding (tested: 147 nM) | Fold Cho P2X7/wt (phage ELISA) (mouse P2X7 [4]): 21 fold

B5: P2X7PMP8E7 (VHH)
VHH: B4 VHH with M2V
notes: as for B4
IC50 (nM) against 20 uM NAD (CD62L shedding, Yac-1 cells) (mouse P2X7 [3]): 4000 nM | IC50 (nM) against 100 uM ATP (CD62L shedding, Yac-1 cells) (mouse P2X7 [3]): 576 nM | binding result (human P2X7): no binding (tested: 147 nM) | binding result (human P2X4): no binding (tested: 147 nM) | Fold Cho P2X7/wt (phage ELISA) (mouse P2X7 [4]): 16 fold

B6: P2X7PMP19C2 (VHH)
VHH: EVQLVKSGGGLVQAGGSLRLSCAASPGTFSSFNMGWFRQTPGKEREFVAATSWSDISTYYADSVKGRFTISRDNAKNTVTLEMNSLKPEDTAVYYCAAGYYRGGYLGYRLTLEGSYDVWGQGTQVTVSS
notes: family 15; on phage or c-myc/His6-tagged in assays
absorption ratio (ELISA) (mouse P2X7 [1]): 18 ratio | MFI FACS (pre-Myc incubation) (mouse P2X7 [2]): 64 MFI

B7: P2X7PMP19E3 (VHH)
VHH: B6 VHH with V2M, K6E
notes: as for B6
absorption ratio (ELISA) (mouse P2X7 [1]): 8 ratio | MFI FACS (pre-Myc incubation) (mouse P2X7 [2]): 55 MFI

B8: P2X7PMP6A11 (VHH)
VHH: EVQLVESGGGLVQAGGSLRLSCAASGNFFRVNTMAWYRQAPGKQRELVADITRGDRTNYADTVNGRFTISRDNVRNTVYLQMNGLKPEDTAAYYCYARIELGVLEPRDYWGQGTQVTVSS
notes: family 5, 2; on phage or c-myc/His6-tagged in assays
absorption ratio (ELISA) (mouse P2X7 [1]): 17 ratio | MFI FACS (pre-Myc incubation) (mouse P2X7 [2]): 53 MFI

B9: P2X7PMP14F10 (VHH)
VHH: B8 VHH with S21L, N27S, T33N, T62S, A92V, Y94S, V103I
notes: as for B8
absorption ratio (ELISA) (mouse P2X7 [1]): 19 ratio

B10: P2X7PMP8A11 (VHH)
VHH: B8 VHH with N27S, T33N, T62S, N83D, A92V, E105V
notes: as for B8
absorption ratio (ELISA) (mouse P2X7 [1]): 11 ratio | MFI FACS (pre-Myc incubation) (mouse P2X7 [2]): 17 MFI

B11: P2X7PMP8B4 (VHH)
VHH: B8 VHH with G84S
notes: as for B8
absorption ratio (ELISA) (mouse P2X7 [1]): 13 ratio | MFI FACS (pre-Myc incubation) (mouse P2X7 [2]): 71 MFI

B12: P2X7PMP14G4 (VHH)
VHH: B8 VHH with R19G
notes: as for B8
absorption ratio (ELISA) (mouse P2X7 [1]): 34 ratio

B13: P2X7PMP8E6 (VHH)
VHH: B8 VHH with S17P
notes: as for B8
absorption ratio (ELISA) (mouse P2X7 [1]): 12 ratio | MFI FACS (pre-Myc incubation) (mouse P2X7 [2]): 69 MFI

B14: P2X7PMP8B12 (VHH)
VHH: B8 VHH with N27S, T33V, A40G, T62S, A92V, R98T
notes: family 5, 3; on phage or c-myc/His6-tagged in assays
absorption ratio (ELISA) (mouse P2X7 [1]): 38 ratio | MFI FACS (pre-Myc incubation) (mouse P2X7 [2]): 93 MFI

B15: P2X7PMP8H5 (VHH)
VHH: B8 VHH with V2M
notes: as for B8
absorption ratio (ELISA) (mouse P2X7 [1]): 12 ratio | MFI FACS (pre-Myc incubation) (mouse P2X7 [2]): 24 MFI

B16: P2X7PMP14G11 (VHH)
VHH: B8 VHH with Q13K, A14P, N27S, T33N, A40G, T62S, A92V, R98T
notes: as for B14
absorption ratio (ELISA) (mouse P2X7 [1]): 30 ratio

B17: P2X7PMP8H6 (VHH)
VHH: B8 VHH with N27S, T33N, T62S, A92V, V103P, E105V
notes: as for B8
absorption ratio (ELISA) (mouse P2X7 [1]): 17 ratio | MFI FACS (pre-Myc incubation) (mouse P2X7 [2]): 43 MFI

B18: P2X7PMP8C12 (VHH)
VHH: B8 VHH with N27S, T33N, T62S, A92V, R98T
notes: as for B14
absorption ratio (ELISA) (mouse P2X7 [1]): 28 ratio | MFI FACS (pre-Myc incubation) (mouse P2X7 [2]): 89 MFI

B19: P2X7PMP8D10 (VHH)
VHH: B8 VHH with A14P, N27S, T33N, T62S, A92V, R98T
notes: as for B14
absorption ratio (ELISA) (mouse P2X7 [1]): 18 ratio | MFI FACS (pre-Myc incubation) (mouse P2X7 [2]): 94 MFI

B20: P2X7PMP8H4 (VHH)
VHH: B8 VHH with N27S, T33N, A40G, T62S, N83D, A92V, R98T, E105V
notes: as for B14
absorption ratio (ELISA) (mouse P2X7 [1]): 27 ratio | MFI FACS (pre-Myc incubation) (mouse P2X7 [2]): 65 MFI

B21: P2X7PMP13G9 (VHH)
VHH: EVQLVESGGGLVQAGGSLRLSCVASGRTFSILTMGWFRQAPGKEREFVAAISGIGAIHYADSVKGRFTLSRDNARNTVSLHMNSLKPEDTAVYYCAAKANYESPSRETSYAYWGQGTQVTVSS
notes: family 23; on phage or c-myc/His6-tagged in assays
ATP IC50 by 2 uM NB (head prints 'mM'; ligand titration at fixed Nanobody, CD62L shedding, Yac-1 cells) (mouse P2X7 [3]): 0.469 mM | IC50 (nM) against 20 uM NAD (CD62L shedding, Yac-1 cells) (mouse P2X7 [3]): 136 nM | IC50 (nM) against 100 uM ATP (CD62L shedding, Yac-1 cells) (mouse P2X7 [3]): 35 nM | binding result (human P2X7): no binding (tested: 147 nM) | binding result (human P2X4): no binding (tested: 147 nM) | Fold Cho P2X7/wt (phage ELISA) (mouse P2X7 [4]): 17 fold

B22: P2X7PMP4B4 (VHH)
VHH: EVQLVESGGGLVQAGGSLRLSCAASGRTVSDYGMGWFRQAPGKLREFVASINWSGIYTRYIDSVEGRFTISRDNTKNTLYLQMNNLKAEDTAVYYCAYFLGPNWYSNYGRPSSYDFYGQGTQVTVSS
notes: family 4; on phage or c-myc/His6-tagged in assays
ATP IC50 by 2 uM NB (head prints 'mM'; ligand titration at fixed Nanobody, CD62L shedding, Yac-1 cells) (mouse P2X7 [3]): 0.047 mM | binding result (human P2X7): no binding (tested: 147 nM) | binding result (human P2X4): no binding (tested: 147 nM) | Fold Cho P2X7/wt (phage ELISA) (mouse P2X7 [4]): 19 fold
